Laboratory results reported in patent US7537764.

T1: recombinantly expressed purified soluble WNV E protein (truncated form, strain 382-99) (West Nile virus strain 382-99, UniProt Q9Q6P4 291-696)
T1 construct: also called recombinant WNV-E protein; truncated E protein
T1 sequence: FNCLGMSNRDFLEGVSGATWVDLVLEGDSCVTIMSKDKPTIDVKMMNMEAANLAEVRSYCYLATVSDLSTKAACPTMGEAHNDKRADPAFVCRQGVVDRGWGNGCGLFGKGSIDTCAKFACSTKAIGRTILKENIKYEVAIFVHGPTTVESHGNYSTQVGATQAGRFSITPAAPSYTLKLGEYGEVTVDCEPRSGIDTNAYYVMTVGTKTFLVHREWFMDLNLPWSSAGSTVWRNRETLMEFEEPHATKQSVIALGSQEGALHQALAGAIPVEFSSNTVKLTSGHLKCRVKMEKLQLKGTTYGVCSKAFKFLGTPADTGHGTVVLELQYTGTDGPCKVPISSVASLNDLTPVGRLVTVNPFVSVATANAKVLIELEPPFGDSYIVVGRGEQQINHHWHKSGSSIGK

B1: SC04-353 (scFv)
scFv: EVQLVQSGGGVVQPGRSLRLSCAASGFTFSNYAMHWVRQAPGKGLEWVAVISYDGGNKYYADSVKGRFTMSRDNSKNTLYLQMNSLRAEDTAVYYCARDFWSGYSMVDSYYYYMDVWGKGTTVTVSSGTGGSGGTGSGTGGSTETTLTQSPGTLSLSPGERATLSCRASQSVSNTFLAWYQQKPGQAPRLLIYGASSRATGIPDRFSGSGSGTDFTLTISRLEPEDFAAYYCQQYGSSLTFGPGTKVDIKR
B2: SC04-289 (scFv)
scFv: QMQLVQSGAEVKKPGESLRISCKGSGYSFTSNWITWVRQMPGKGLEWMGRIDPSDSYTNYSPSFQGHVTISADKSISTAYLQWSSLKASDTAMYYCARDVVGVGASDYYYYMDVWGKGTTVTVSSGTGGSGGTGSGTGGSTEIVLTQSPGTLSLSPGETATLSCRTSQSVSSSYLGWYQQKPGQAPRLLIYGASIRATGIPARFSGSGSGTEFTLTIDSLQSEDFAVYYCQQYNNWPPITFGQGTRLEIKR
B3: SC04-299 (scFv)
scFv: EVQLVETGGGVVQPGRSLRLSCAASGFTFSGYAMHWVRQAPGKGLDWVAVISYDGSEKYSADSVKGRFTISRDNSKNTLYLQMNSLRAEDTAVYYCAKESGGPIWYKYYGVDVWGQGTTVTVSSGTGGSGGTGSGTGGSTSYVLTQPPSLSAAPRQRVTISCSGSSSNIGNYGVNWYQQLPGKAPKLLIYYDDLLPSGVSDRFSGSKSGTSASLAISGLQSEDEGDYYCAAWDDTLSAWVFGGGTKLTVLG
B4: SC04-271 (scFv)
scFv: EVQLVETGAEVKKPGESLRISCKGSGYTFNNYWIGWVRQMPGKGLEWMGIIYPGDSDTRYSPSVQGHVTISADKSINTAYLQWSSLKASDTAVYYCARRPGYDYGFYYFDYWGQGTLVTVSSGTGGSGGTGSGTGGSTQSALTQPRSVSGSPGQSVTISCTGTSSDVGGYNYVSWYQHHPGKAPKLMIYDVSNRPLGVSNRFSGSKSGNTASLTISGLQAEDEADYYCSSYTSSSTYVFGTGTHLTVLS
B5: SC04-361 (scFv)
scFv: EVQLVQSGAEVKKPGESLKISCKASGFSFSTYWIGWVRQMPGKGLEWMGIIYPADSDTRYSPSFQGQVTISADKSISTAYLQWSSLKASDTAMYYCARLRGPYYDFWNGYRETHDAFNVWGQGTMVTVSSGTGGSGGTGSGTGGSTDVVMTQSPDSLAVSLGERATINCKSSQNILDNSDNKNFLAWYQQKPGQPPKLLIYWASARESGVPDRFSGSGSGTDFTLTISSLQAEDVALYYCQQYYNTPITFGQGTRLEIKR
B6: SC04-283 (scFv)
scFv: EVQLVQSGAEVKKSGESLKISCKGSGYTFNTYWIGWVRQMPGKGLEWMGIIYPGDSDTIYSPSFQGQVTISADKSISTAYLQWSSLKASDSAMYYCARLTFRRGYSGSDSFLPPGDFDYWGQGTLVTVSSGTGGSGGTGSGTGGSTDIQMTQSPSTLSASVGDRVTITCRASQSISSWLAWYQQKPGKAPNLLIYAASSLQSGVPSRFSGSGSGTDFTLTISSLQPDDSATYYCQQYNTYPLTFGGGTKVEIKR
B7: SC04-374 (scFv)
scFv: QVTLKESGPTLVKPTQTLTLTCTFSGFSLSTSGVGVGWIRQPPGKALEWLAVIYWNDDKLYRPSLKSRLTITKDTSKNQVVLTMTKMDPVDTATYYCAHRHRYYDISGYYRLFSDAFDIWGQGTMVTVSSGTGGSGGTGSGTGGSTQSVVTQPPSVSGAPGQRVTISCTGSSSNIGAGYDVHWYQQLPGTAPKLLIYGNSNRPSGVPDRFSGSKSGTSASLAITGLQAEDEADYYCQSYDSSLSGSVFGGGTKLTVLG
B8: SC04-325 (scFv)
scFv: QMQLVQSGAEVKKPGSSVKVSCKASGDTFSSYAISWVRQAPGQGLEWMGGIFGTASYAQKFQGRVTITADESTSTAYMELSSLRSEDTAVYYCARGGMATTPGLDYWGQGTLVTVSSGTGGSGGTGSGTGGSTDIQLTQSPDSLAVSLGERATINCKSSQSVLYSSNNKNYLAWYQQKPGQPPKLLIYWASTRESGVPDRFSGSGSGTDFTLTISSLQAEDVAVYYCQQYYSTPLTFGQGTKVEIKR
B9: SC04-311 (scFv)
scFv: EVQLVQSGGGVVQPGRSLRLSCVASGFTFSKDAMHWVRQAPGKGLEWVAVISYDGSDKHYADSVKGRVTISRDNSRKTLYLRMDSLRAEDTALYYCARGYNSGHYFDYWGQGTLITVSSGTGGSGGTGSGTGGSTQSVLTQPPSVSAAPGQKVTISCSGTSSNIGDNYVSWYQHLPGTAPKLLIYDNNKRPSGIPDRFSGSKSGTSATLGVTGLQTGDEADYYCGTWDSSLTAVVFGGGTKLTVLG

Legend:
[1] = target: T1, recombinantly expressed purified …; test: phage ELISA on coated recombinant soluble WNV E protein
[2] = target: T2, West Nile virus strain USA99b (strain 385-99), whole virus (West Nile virus strain 385-99 (USA99b)); test: phage ELISA on coated whole inactivated WNV
T2 construct: mature

Binder | OD 492 nm [1] [OD] | OD 492 nm [2] [OD]
B1 | 0.099 | –
B2 | 1.39 | 0.759
B3 | 0.072 | 1.07
B4 | 0.608 | 0.984
B5 | 0.076 | –
B6 | 0.074 | 1.21
B7 | 1.36 | –
B8 | 1.4 | –
B9 | 1.54 | 1.04
